The source of these data is the DeepSol protein solubility set.

This data set can be described thus: soluble on expression in E. coli; label from the status in PepcDB or PDB records.
Regarding “MAEREQSNDSARTDVPAIVSLRTRELDTGEGRMQWASTLERLYCETDVAWPEPRRHFDAEWGGRPFGDLHVSTIRADAHTVVRSPAMIQSDSGEGYLVCLVTDGSVEVRQSGRATVVEPGSFALLDCAAPFVFHSPAPFRQVVVRSPREVLTSRLPGRIVEHGTARSIHGDTGAGGLVGRLFVDIADMDAPMSQGAAVSFASSAVDMLATALTEGLLATSAADLHRTEDLRRVQRVIEQNLHDADITLSDIAAAAGMSLRTVHKLFNAEGTTTRAWLYQARLEAARKYLLTTDLSVADVSECAGFRDVSHFSRLFRSTFGSSPGLYRKEHARRVS”, the “soluble on expression in E. coli” value is “not soluble”.

Regarding “MGSDKIHHHHHHMSRPKILYFITEDWYFCSHRLPLALAARDAGYDVAVVTNVNEHADVIRRAGIRLIPFDLSRKGMNPASELAVLARLIALYRKEKPDIVHQVAMKPVLYGSLAARLSGVSRVVNALAGLGYIFTSDQPKARFLRPVIGSAFRGLLNSRRSRLILQNQDDRAKFIRKRFISEKRIRLIRGSGVDTAVFVPTPEPPGVPVVILPSRMLWDKGVREFVDAAGQLKKRGISARFVLVGDADPHNPSAIHTEQLTAWHAEGAVEWWGRRDDMPAVFEQSHIVCLPSYREGLPKVLLEAASCGRPIVTTDTPGCRDVVRQGENGLLVPVRGTAELADALQLLIEQPALRKKMGCKGREIVVSEFALEKVVAKTMNIYRELLKP”, the “soluble on expression in E. coli” value is given as “not soluble”. The result for “MPSLFSEDKLPALTYHCSVELNGNIYIFGGLMPCYSYEEDAPMLNDFFVDGIKNLPPPLLPQVINNPSMVNNPHLYVASIPSCRFSKPKMGGYIPPPLLCVQGSKLTDRHIFFYGGFEIRTETRGDENGKYHLKKRLYVNNTGYILDIMSFKF” reads “not soluble”; that for “MFTIKTDDLTHPAVQALVAYHISGMLQQSPPESSHALDVQKLRNPTVTFWSVWEGEQLAGIGALKLLDDKHGELKSMRTAPNYLRRGVASLILRHILQVAQDRCLHRLSLETGTQAGFTACHQLYLKHGFADCEPFADYRLDPHSRFLSLTLCENNELP”, “soluble”.

Turning to “MEPSTIVKLDVGGKIFKTTIFTLCKHDSMLKTMFCTDVPVTKNEEGSVFIDRDSKHFRLILNFLRDGQIALPDSDREVREVLAEASYFLLDPLIELCGERLEQSLNPYYHLVSTVLEARKIIFATEKPIVVLRLPVYIATSGNQSYYFSETKFRELSEEYHKHVAFILITEPEFNEDCSWSFFLRAKKITARIKGPMDCNLVEECMPKTVERRREKKTWH”, the “soluble on expression in E. coli” value is given as “not soluble”. Turning to “MAGDPMTIYEQHFIFSDRIVPIRVRENKYARRLILRIDARGREICVTTPPAINLYSIQGFIAKHQSWIEARLARVQIAHANSYLKEGTKIPLLGIPHTIQRKEGRGITEIVAGDVRQEPKIVVYGQLEYLPRRIADVLKKQAALIITPLVKCYARKVERKVKSICYKDTKSRWGSCSIHGNLSFSWRLVMAPQEVIEYVVAHEVAHLIEMNHGPKFWALCEKLCPKSEAYRTWLKENGHMLQAVNFHSYRLEILEHHHHHH”, the “soluble on expression in E. coli” value is recorded as “soluble”.

Consider “MGHHHHHHSHPPEKHLGIYSVLPNHKADAVLSMPSSVTSGLHVQPALAVSMDFSTYGGLLPQGFIQRELFSKLGELAVGMKSESRTIGEQCSVCGVELPDNEAVEQHRKLHSGMKTYGCELCGKRFLDSLRLRMHLLAHSAGAKAFVCDQCGAQFSKEDALETHRQTHTGTD”, for which the “soluble on expression in E. coli” value was “soluble”. The result for “AIANSRAADQLELDGLPGTPPDFYRERQRSRVERYQSPAGAPLQCSVQVQTTQEHPLWTSHVWSGARALADTLCWQPELIAGKTVCELGAGAGLVSIVAFLAGADQVVATDYPDPEILNSLESNIREHTANSCSSETVKRASPKVVPYRWGDSPDSLQRCTGLQRFQVVLLADLLSFHQAHDALLRSVKMLLALPANDPTAVALVTFTHHRPHLAERDLAFFRLVNADGALIAEPWLSPLQMDPMFPDDPGDVCIRGQVHRWRLRWRSAASASANIPAHARNE” reads “soluble”; that for “MGSDKIHHHHHHMKIGIVISGGDVSGMNNFIFQIARQANADITLFNGGIPGLLEKSHQDMAWRDLVDYSITAVPIITSGRTSRKLQRSEYESIAKKLKSLRIDVLIMAGGDGSLQFLNTLSEFEINCFGVGMTIDNDVYGSDYTIGFSTACEQIIKEVSRLRNTGRALPGRVFMVEILGGYCGELTLQSAIKCNADIALIPEAQMPLAVLAERITRKLSAQNSVVILCSEGYTKEYSPGFQGAIDTMIKQLEPQIGVRIRKTIVGYGLRSGDPTCEEIYQGTIMASEVVRCIQSGMKNKAIIINSSNKPIPIDLVSMKKRLVDTEGHHYKLAKQLNII”, “not soluble”.

With “MTIPLWWQNGVIYQIYPKSFQDTTGSGTGDLRGVTQRLDYLQRLGVDAIWLTPFYISPQVDNGYDVANYTAIDPTYGTLDDFDELVAQAKARGIRIILDMVFNHTSTQHAWFREALNKESPYRQFYIWRDGTPDVCPNNWQSKFGGSAWRWHSQSEQYYLHLFAPEQADLNWENPAVRAELKKVCEFWADRGVDGLRLDVVNLIAKDQNFPDDPTGDGRRFYTDGPRAHTFLREMNRDVFTPRNLMTVGEMSSTTLENCQQYAALSGDELSMTFNFHHLKVDYPNGEKWTLAKPDYVALKALFRHWQQGMHNVAWNALFWCNHDQPRIVSRFGDEGEYRVPAAKMLAMALHGMQGTPYIYQGEEIGMTNPHFTRITDYRDVESHNMFAALRAAGRDPDELLAILASKSRDNSRTPMQWDNGKNAGFTQGEPWISLCDNYTEVNVEAALRDENSVFYTYQKLIALRKTQPVLIWGDYQDLLPDSPSVWCYRRQWQGQILLVVANLSNQCQEWHPPHIKGQWQALLHNYGEVASQPAAMTLRPFEAIWWLQR”, the “soluble on expression in E. coli” value is recorded as “not soluble”. As to “MSLIGETINKLKVIKESSKRDKSRCKMYECLCECGEVIIVRSSTLRQGKIKSCGCESNKIHSELMRERNTTHGLSSNPMYQRWLGMKQRCYDVNAINYKNYGGRGIEICEEWKNDFKKFYDYMGDPPNENYQIDRINNDGNYEPGNVKWSTRSENSTNIRKKSTHNIYKKSNNVYNIQIVRKNKVKYFSAKSLEEAIELRDNVINKYNETGEGHHHHHH”, the “soluble on expression in E. coli” value is reported as “not soluble”.

For the sequence “SSALIQTPSSLLVQTNHTAKMSCEVKSISKLTSIYWLRERQDPKDKYFEFLASWSSSKGVLYGESVDKKRNIILESSDSRRPFLSIMNVKPEDSDFYFCATVGSPKMVFGTGTKLTVVDVLPTTAPTKKTTLKMKKKKQCPFPHPETQKG”, the “soluble on expression in E. coli” value is given as “soluble”. The result for “MLEQIQQALAGDQEQFQALYGQYQPVIYKCMKKYYLKDYDTEDWLQEGRIVFFRTLERFDSEKQASLGKFFKRNFENHVHSLIRHQCAYKRRTDTLSISLEQRLESAGEELVDYLGTAATDPLGQLMIQEKLAAFPTRLSSLEQQILNAYLKGYTLEEIAKVRGGTFSAVRSAYDRAKAKMKYTLENE” reads “not soluble”; that for “GSMVENSELRKAGLKVTLPRVKILQMLDSAEQRHMSAEDVYKALMEAGEDVGLATVYRVLTQFEAAGLVVRHNFDGGHAVFELADSGHHDHMVCVDTGEVIEFMDAEIEKRQKEIVRERGFELVDHNLVLYVRKKK”, “soluble”. For the sequence “ETIASELKAIGKELEDQKKEENIQIAKIAKEKFDFLSTFKVGPYDLIDEDIQMKIKRTLYSSLDYKKENIEKLKEILEILKKNSEHYNIIGRLIYHISWGIQFQIEQNLELIQNGVENLSQEESKSLLMQIKSNLEIKQRLKKTLNETLKVYNQNTQDNEKILAEHFNKYYKDFDTLKPAF”, the “soluble on expression in E. coli” value was “soluble”. The result for “MGSDKIHHHHHHMSRMIRFHKFGAADVLRCEEQAEPSPAADEVQIRVEAVGVSWYDVLWRQNLAPSQARLPAGIGHEMAGVVTAVGEGVDDIAVGDRVASFPATSANDHPVYGDVIVLPRTAITRYPNVLTPIEASVHYTPLLIAYFAYVDLARAKAGQTALVTDASHCAGPAFVQLGRALGLKVFAATKEAAQRDYLLGLGADKVIVTEEQDLLLQIGKYTDGRGVDMVLDGMGGPQMSLLGDVLAPRGSLVLYGLQGGNQTPFPACAAFQKNIQFYVHCIGNFTGKPELGISQDQVALQRALRDINQFTADQLLTPQIIKVYPFEQVVEAHRYMDQCPCGGRVVLDMAQH” reads “not soluble”.
